By Km is commonly meant the substrate concentration at which the rate is half of its maximum.

The source of these data is patent US6468762B1, “High specificity homocysteinases” (AntiCancer, Inc., priority 1997, dated 2002).

For data set [1], the system named is Trichomonas vaginalis homocysteinase, isolated native enzyme (may reflect expression from more than one gene). The note with it: native enzyme isolated from T. vaginalis; Lockwood et al., 1991; cited from earlier work.
For a further data set, the system named is N[C@@H](CCS)C(=O)O. Description: Km of the novel homocysteinase expressed from the pAC2-1 clone (α-ketobutyrate/pyruvate assay, MBTH). The class given is biochemical, Trichomonas vaginalis. The note with it: other: 37° C., pH 8.0, 100 mM phosphate buffer, 10 μM pyridoxal phosphate, 10 minutes, DL-homocysteine, L-cysteine or L-methionine separately, 10 μM to 1.6 mM. An excerpt:
(§1) In FIG. 1 (panels A and B) are depicted the amino acid sequences of two Trichomonas vaginalis homocysteinases, the first derived from a novel clone (pAC2-1) of the present invention, and the second, the enzyme derived from the known mgl1 gene (see also SEQ ID NOS: 10 and 12 for comparison of amino acids; SEQ ID NOS: 9 and 11 for comparison of encoding DNA's). It will be seen that pAC2-1 is characterized by the existence of three differences (mutations), compared to mgl1:
(§2) Phe to Leu at amino acid position 47,
(§3) Asp to Glu at amino acid position 172, and
(§4) Ser to Tyr at amino acid position 308.
(§5) In the first step of this assay, 1 ml volumes of 100 mM phosphate buffer pH 8.0, containing also 10 μM pyridoxal phosphate, […], respectively, were incubated, for 10 min at 37° C., with a sufficient sample (typically 50 μl) of crude cell extract (cells were sonicated, and the supernatant was recovered following centrifugation) to provide about 1-100 units of homocysteinase (“HCYase”) enzyme. The reactions were stopped by adding 0.1 ml of 50% TCA. The suspensions were then centrifuged using an Eppendorf centrifuge at 13 k rpm for 2 minutes. 0.5 ml samples of the supernatants were then added to 0.5 ml of 0.05% 3-methyl-2-benzothiazolinone hydrazone (“MBTH”) in 0.8 ml of 1M sodium acetate, pH 5.2 and incubated at 50° C. for 30 min. The amount of reaction products was determined for each sample, by spectrophotometry at OD320. The amount of protein was determined with a Bio-Rad 500-0006 kit (Bio-Rad, Richmond, Calif.) with bovine serum albumin as a standard. The enzyme specific activity was calculated as units/mg protein, with one unit of enzyme defined as the amount that catalyzes the formation of 1 μmol of α-ketobutyrate from homocysteine per minute. […]
(§6) The reaction was stopped by adding 0.1 ml of 50% TCA. […] The amount of reaction product was then determined by spectrophotometry at OD320. The Kcat (turnover number) values reported in FIG. 5, were determined from the calculation of Vmax values using standard kinetic expressions and plots.

The subject of the next data set is CSCC[C@H](N)C(=O)O. The data set is described as above. It is filed as biochemical, Trichomonas vaginalis. The note with it: other: 37° C., pH 8.0, 100 mM phosphate buffer, 10 μM pyridoxal phosphate, 10 minutes, DL-homocysteine, L-cysteine or L-methionine separately, 10 μM to 1.6 mM.
Source text: as §1, §2, §3, §4, §5, §6

In the next data set the test system is N[C@@H](CS)C(=O)O. The description is as above. The class given is biochemical, Trichomonas vaginalis. The note with it: other: 37° C., pH 8.0, 100 mM phosphate buffer, 10 μM pyridoxal phosphate, 10 minutes, DL-homocysteine, L-cysteine or L-methionine separately, 10 μM to 1.6 mM.
Source text: as §1, §2, §3, §4, §5, §6

For data set [2] the following is noted: from the relative activity scale. The text has this: Homocysteinase enzymes of suitable catalytic activity for use as starting materials to obtain mutated forms can be derived from other Pseudomonas species, or from other bacteria, using routine screening procedures and assays that are recognized in the art.
Data set [3] is described as follows: Relative activity toward homocysteine versus cysteine or methionine. The class given is biochemical. The note with it: apparent activity. On the procedure:
In the first step of this assay, 1 ml volumes of 100 mM phosphate buffer pH 8.0, containing also 10 μM pyridoxal phosphate, and different concentrations (25 μM-25 mM) of DL-homocysteine, or L-methionine, L-cysteine, respectively, were incubated, for 10 min at 37° C., with a sufficient sample (typically 50 μl) of crude cell extract (cells were sonicated, and the supernatant was recovered following centrifugation) to provide about 1-100 units of homocysteinase (“HCYase”) enzyme. The reactions were stopped by adding 0.1 ml of 50% TCA. The suspensions were then centrifuged using an Eppendorf centrifuge at 13 k rpm for 2 minutes. 0.5 ml samples of the supernatants were then added to 0.5 ml of 0.05% 3-methyl-2-benzothiazolinone hydrazone (“MBTH”) in 0.8 ml of 1M sodium acetate, pH 5.2 and incubated at 50° C. for 30 min. The amount of reaction products was determined for each sample, by spectrophotometry at OD320. The amount of protein was determined with a Bio-Rad 500-0006 kit (Bio-Rad, Richmond, Calif.) with bovine serum albumin as a standard. The enzyme specific activity was calculated as units/mg protein, with one unit of enzyme defined as the amount that catalyzes the formation of 1 μmol of α-ketobutyrate from homocysteine per minute. The assay procedure can, of course, also be used with purified homocysteinase samples that provide, for example, 1-100 units of enzyme per assay test. […]

Data set [4] is described as follows: Single enzyme assay detecting product hydrogen sulfide: contribution of homocysteine versus cysteine. It is filed as biochemical. An excerpt: According to the preferred practice of the invention, homocysteinases are provided wherein the relative activities of said enzymes toward homocysteine versus cysteine are such that, by detecting product hydrogen sulfide, the apparent concentration of homocysteine measured in a patient sample (which reflects also a contribution from cysteine) is less that about 150%, preferably less than about 110%, and most preferably less than about 102%, of the actual value thereof. In a further preferred example of the invention, for example using the novel Trichomonas homocysteinase expressed from pAC2-1, the apparent concentration of homocysteine measured in a single enzyme assay reflects no more than about a 1% false contribution from cysteine.
In general, useful diagnostic information can be obtained when the amount of produced hydrogen sulfide attributable to homocysteine is about one half of the total. […] Preferably, however the fraction of total hydrogen sulfide detected in an assay that is attributable to homocysteine is at least 90%, preferably 95%, more preferably 98%, and most preferably 99% or greater. The 99% level is readily obtained according to the practice of the invention, for example using the homocysteinase represented by SEQ ID NO: 10. […]

The nature of data set [5]: Homocysteinase specific activity, α-ketobutyrate assay. The class given is biochemical. The procedure: In the first step of this assay, 1 ml volumes of 100 mM phosphate buffer pH 8.0, containing also 10 μM pyridoxal phosphate, and different concentrations (25 μM-25 mM) of DL-homocysteine, or L-methionine, L-cysteine, respectively, were incubated, for 10 min at 37° C., with a sufficient sample (typically 50 μl) of crude cell extract (cells were sonicated, and the supernatant was recovered following centrifugation) to provide about 1-100 units of homocysteinase (“HCYase”) enzyme. The reactions were stopped by adding 0.1 ml of 50% TCA. The suspensions were then centrifuged using an Eppendorf centrifuge at 13 k rpm for 2 minutes. 0.5 ml samples of the supernatants were then added to 0.5 ml of 0.05% 3-methyl-2-benzothiazolinone hydrazone (“MBTH”) in 0.8 ml of 1M sodium acetate, pH 5.2 and incubated at 50° C. for 30 min. The amount of reaction products was determined for each sample, by spectrophotometry at OD320. The amount of protein was determined with a Bio-Rad 500-0006 kit (Bio-Rad, Richmond, Calif.) with bovine serum albumin as a standard. The enzyme specific activity was calculated as units/mg protein, with one unit of enzyme defined as the amount that catalyzes the formation of 1 μmol of α-ketobutyrate from homocysteine per minute. The assay procedure can, of course, also be used with purified homocysteinase samples that provide, for example, 1-100 units of enzyme per assay test.
Alternatively, an additional two stage strategy may be used. In the first stage, the partitioning material was DEAE Sepharose® FF, and loading and pre-washing were conducted with 20 mM sodium phosphate buffer, pH 7.2. Elution of the protein was accomplished using a linear gradient (8 ml/min) from 20 mM sodium phosphate buffer, pH 7.2 (solution A) to 20 mM sodium phosphate buffer, pH 7.2, 500 mM NaCl (solution B). In the second stage, the partitioning material was phenyl Sepharose® 6-FF, and loading and pre-washing were conducted with 0.6 M NH4SO4 in 20 mM sodium phosphate buffer, pH 7.2. Elution of the protein was accomplished using a linear gradient (5 ml/min) from 0.6 M NH4SO4, 20 mM sodium phosphate buffer, pH 7.2 (solution A) to 20 mM sodium phosphate buffer, pH 7.2, (solution B). The following purification results were obtained for this alternate procedure. The above-described cell-lysate contained 8400 units of homocysteinase at a specific activity (units/mg) of 5.2. Following completion of pre-column procedures, 6,300 units were recovered at a specific activity of 64 (about 75% yield). Upon completion of the DEAE Sepharose®-FF step (first column), 5,040 units were recovered at a specific activity of 172 (60% yield), while after the phenyl Sepharose® 6-FF step (second column), 4,200 units remained at a specific activity of 300 (50% yield).
An activity assay for the keto product of the α, γ or α,β-elimination (α-keto butryate for homocysteine) was carried out in a 1.5 ml Eppindorf tube using 1-ml. of 50 mM phosphate buffer pH 8.0 (also containing 10 μM pyridoxal phosphate and 20 mM homocysteine) for 10 minutes at 37° C., with varying amounts of enzyme. The reaction was stopped by adding 0.5 ml of 4.5% TCA. […]
The amount of reaction product was determined by spectrophotometry at OD335. […] The amount of protein was determined with the Lowry Reagent Kit (Sigma) with bovine serum albumin as a standard. The specific activity was calculated as units/mg protein, with one unit of enzyme defined as the amount that catalyzed the formation of 1 μmol of α-ketobutyrate/minute.

A value given as a limit tells only on which side of the number the result lay.

In the case of `N[C@@H](CCS)C(=O)O` (racemic) [homocysteine], the Km in data set [1] is about 0.5 mM.

Regarding “Trichomonas vaginalis homocysteinase, pAC2-1 clone (recombinant in E. coli BL21 (DE3)), SEQ ID NO: 10; versus mgl1 (SEQ ID NO: 12): Phe47 to Leu, Asp172 to Glu, Ser308 to Tyr; N-terminal 6x His (Trichomonas vaginalis; D172E/F47L/S308Y)”, the Km in the data set with N[C@@H](CCS)C(=O)O is listed as 4.8 mM; with CSCC[C@H](N)C(=O)O, 3.1 mM; with N[C@@H](CS)C(=O)O, 3.45 mM.

“L-methionine-alpha-deamino-gamma-mercaptomethane lyase [P. putida enzyme]”: the “apparent preference for homocysteine over cysteine” value in data set [2] was about 10 fold.

B1: SEQ ID NO: 10: recombinant Trichomonas vaginalis homocysteinase from E. coli clone pAC2-1 (ATCC 98549), with 6 N-terminal histidine residues (protein)
chain: MHHHHHHMSHERMTPATACIHANPQKDQFGAAIPPIYQTSTFVFDNCQQGGNRLAGQESGYIYTRLGNPTVSNLEGKIAFLEKTEACVATSSGMGAIAATVLTILKAGDHLISDECLYGCTHALFEHALTKFGIQVDFINTAIPGEVKKHMKPNTKIVYFETPANPTLKIIDMERVCKEAHSQEGVLVIADNTFCSPMITNPVDFGVDVVVHSATKYINGHTDVVAGLICGKADLLQQIRMVGIKDITGSVISPHDAWLITRGLSTLNIRMKAESENAMKVAEYLKSHPAVEKVYYPGFEDHEGHDIAKKQMRMYGSMITFILKSGFEGAKKLLDNLKLITLAVSLGGCESLIQHPASMTHAVVPKEEREAAGITDGMIRLSVGIEDADELIADFKQGLDALL
modifications: N-terminal His6 tag
notes: recombinant Trichomonas vaginalis homocysteinase from E. coli clone pAC2-1 (ATCC 98549), with 6 N-terminal histidine residues
With B1, the “activity for homocysteine relative to cysteine and methionine” value in data set [3] was “at least 100 fold”. Besides, in data set [4] (single enzyme assay of patient samples), the “fraction of total hydrogen sulfide detected that is attributable to homocysteine” value is listed as at least 99%. For the same molecule, the “false contribution from cysteine to apparent homocysteine concentration” value in data set [4] (single enzyme assay, product hydrogen sulfide detected) is on record as at most 1%. Further, the specific activity in data set [5] (after DEAE Sepharose-FF step) is 172 units/mg; in data set [5] (after phenyl Sepharose 6-FF step) it was 300 units/mg; in data set [5] (after pre-column procedures), 64 units/mg; in data set [5] (cell-lysate), 5.2 units/mg; in data set [5] (commercial product HYase from AntiCancer, Inc), 40 units/mg.
